Test results reported in patent publication US10736970B2, “Polypeptide complex of titin-telethonin beta-pleated sheet structure as polypeptide drug carrier, method of using the polypeptide complex, and fusion protein complex thereof” (TIANJIN INSTITUTE OF INDUSTRIAL BIOTECHNOLOGY, CHINESE …, priority 2015, dated 2020).

Experiments:
SD rats [1] = test: Oral glucose tolerance test (OGTT) in rats, blood glucose; assay type: in vivo, rat; details: single i.p. 25 nmol/kg
Method: (§1) The rats in the first three groups were given 25 nmol/kg by intraperitoneal injection, the rats in the PBS group were given the same volume of PBS, and the blood glucose was measured by a blood glucose meter. After 30 min, 2 g glucose/kg body weight was given by oral gavage, which was assumed to occur at 0 min, and then the blood glucose level was measured respectively at 10, 30, 60, 90, and 120 min. The area under curve (AUC) was calculated using Graphpad Prism 6.0 software. During the process, blood was taken from the tail vein respectively at 0, 10, and 30 min, added to a centrifuge tube containing EDTA-Na2, and centrifuged at 4000 rpm for 10 min. The supernatant was collected, and the insulin content was measured by using the Rat/Mouse Insulin Elisa kit (Millipore).
SD rats of about 250 g were randomized into 4 groups (n=5), including a 1 nmol/kg group, a 5 nmol/kg group, a 25 nmol/kg group, and a PBS group.
The animals were allowed to free access to food for 12 h, and then fasted for 12 h. Then, OGTT was carried out. […]
The blood glucose level was measured by a blood glucose meter, and this was assumed to occur at −30 min. […] Then, the blood glucose was measured respectively at 10, 30, 60, 90, and 120 min. The area under curve (AUC) was calculated using Graphpad Prism 6.0 software.

SD rats [2] = test: Insulin content in rat plasma during OGTT; assay type: in vivo; details: single i.p. 25 nmol/kg
Method: as §1
In the OGTT test of each group, blood was taken from the tail vein of rats at a time ranging from 10 to 30 min, and added dropwise to an Ep tube containing EDTA-Na2. The plasma was removed, and the insulin content was determined by using the Insulin Elisa kit (Millipore).
(§2) During the process, blood was taken from the tail vein at a time ranging from 10 to 30 min, added to a centrifuge tube containing EDTA-Na2, and centrifuged at 4000 rpm for 10 min. The supernatant was collected, and the insulin content was measured by using the Rat/Mouse Insulin Elisa kit (Millipore).

[3] = literature / background value; cited from earlier work
[4] = rat, in vivo
Method: Blood was sampled from the tail respectively at 0, 0.5, 1, 1.5, 2, 4, 6, and 10 h, and dripped into an Ep tube pretreated with EDTA-Na2. A DPP-4 inhibitor was immediately added (in 30 s) after the blood was sampled.
Then, blood was taken respectively at 1, 2, 4, 8, and 24 h, and added dropwise to an Ep tube pretreated with EDTA-Na2.
(§3) 1 nmol GLZ/TeN was administered to the SD rats (about 250 g) by intravenous (i.v) injection at the tail and by subcutaneous injection (s.c), and this was assumed to occur at 0 h. Blood was sampled from the tail vein of the rats respectively at 0.05, 0.5, 2, 4, 8, 11, 24, and 48 h, and dripped into an Ep tube pretreated with EDTA-Na2. The protease inhibitor protinin was immediately added (in 30 s) after the blood was sampled.
as §3, with “2.8” for “1”, “GLRecom” for “GLZ/TeN”, “tail,” for “tail and by subcutaneous injection (s.c),”, “5, 10,” for “4, 8, 11,”, “a centrifugation” for “an Ep”

C57BL/6 mice [5] = test: OGTT in C57BL/6 mice, blood glucose; assay type: in vivo, mouse; details: i.p. 10 nmol/kg
Method: C57BL/6 mice of about 25 g were randomized into 3 groups (n=5), including a PBS group, a Z1Z2/GLTe-G group, and a GLRecom group. The animals in the Z1Z2/GLTe-G group and the GLRecom group were given the Z1Z2/GLTe-G and GLRecom respectively by intraperitoneal injection at a dosage of 10 nmol/kg body weight, and the animals in the PBS group were given the same volume of PBS. The blood glucose level was measured by a blood glucose meter, and this was assumed to occur at −30 min. After 30 min, 2 g glucose/kg body weight was given by oral gavage, and this was assumed to occur at 0 min. Then, the blood glucose was measured respectively at 10, 30, 60, 90, and 120 min. The AUC was calculated by using the Graphpad Prism 6.0 software.

C57BL/6 mice [6] = test: Insulin content during OGTT in C57BL/6 mice; assay type: in vivo, mouse; details: i.p. 10 nmol/kg
Method: as §2

CC[C@H](C)[C@H](NC(=O)[C@H](Cc1ccccc1)NC(=O)[C@H](CCC(=O)O)NC(=O)[C@H](CCCCN)NC(=O)[C@H](C)NC(=O)[C@H](C)NC(=O)[C@H](CCC(N)=O)NC(=O)CNC(=O)[C@H](CCC(=O)O)NC(=O)[C@H](CC(C)C)NC(=O)[C@H](Cc1ccc(O)cc1)NC(=O)[C@H](CO)NC(=O)[C@H](CO)NC(=O)[C@@H](NC(=O)[C@H](CC(=O)O)NC(=O)[C@H](CO)NC(=O)[C@@H](NC(=O)[C@H](Cc1ccccc1)NC(=O)[C@@H](NC(=O)CNC(=O)[C@H](CCC(=O)O)NC(=O)[C@H](C)NC(=O)[C@@H](N)Cc1c[nH]cn1)[C@@H](C)O)[C@@H](C)O)C(C)C)C(=O)N[C@@H](C)C(=O)N[C@@H](Cc1c[nH]c2ccccc12)C(=O)N[C@@H](CC(C)C)C(=O)N[C@H](C(=O)N[C@@H](CCCCN)C(=O)NCC(=O)N[C@@H](CCCNC(=N)N)C(=O)NCC(=O)O)C(C)C [GLP-1, Glucagon-like peptide 1, reference compound]
period of time of effective blood glucose control in OGTT (SD rats [1]): 30 min
effect on blood glucose level in OGTT (SD rats [1]; 2 g glucose/kg oral after 30 min): significantly reduce the blood glucose level
blood insulin content during OGTT (SD rats [2]): significantly increase the blood insulin content

Peptide Tyrosin-tyrosin [PYY]
in-vivo half-life period of native peptide [3]: 8 min

B1: GLRecom: Single fusion protein: GLP-1(8G)-Z1Z2, Telethonin beta-pleated sheet region and second Z1Z2 connected via linkers (SEQ ID NO: 20), 60.0 kDa (protein)
chain: MKHHHHHHPMSDYDIPTTENLYFQHGEGTFTSDVSSYLEGQAAKEFIAWLVKGRGGGGGSGGGGSGGGGSAMATQAPTFTQPLQSVVVLEGSTATFEAHISGFPVPEVSWFRDGQVISTSTLPGVQISFSDGRAKLTIPAVTKANSGRYSLKATNGSGQATSTAELLVKAETAPPNFVQRLQSMTVRQGSQVRLQVRVTGIPTPVVKFYRDGAEIQSSLDFQISQEGDLYSLLIAEAYPEDSGTYSVNATNSVGRATSTAELLVQGSGSGSAPGTPGGGGSGGGGSGGGGSMATSELSSEVSEENSERREAFWAEWKDLTLSTRPEEGSSLHEEDTQRHETYHQQGQSQVLVQRSPWLMMRMGILGRGLQEYQLPYQRVLPGASGPAGSPTGSGPGSAGSGPGSAGMATQAPTFTQPLQSVVVLEGSTATFEAHISGFPVPEVSWFRDGQVISTSTLPGVQISFSDGRAKLTIPAVTKANSGRYSLKATNGSGQATSTAELLVKAETAPPNFVQRLQSMTVRQGSQVRLQVRVTGIPTPVVKFYRDGAEIQSSLDFQISQEGDLYSLLIAEAYPEDSGTYSVNATNSVGRATSTAELLVQG
half-life period after intravenous injection [4]: 13.4 ± 0.8 h
half-life period relative to Z1Z2/GLTe-G complex (4 h) ([4]; iv): more than 3 times
AUC of blood glucose in OGTT (C57BL/6 mice [5]): significantly reduced
blood glucose reducing effect in OGTT (C57BL/6 mice [5]; 2 g/kg glucose): significant blood glucose reducing effect
blood glucose level at 120 min in OGTT (C57BL/6 mice [5]; 120 min): still significantly reduced
level of insulin secretion (C57BL/6 mice [6]): significantly enhance the level of insulin secretion
